How the values were obtained:
HeLa Kyoto [1] = assay: melting temperature (median over replicates), in situ; higher = more thermally stable
HeLa Kyoto [2] = assay: solubility change mitosis vs G1/S (difference of NP-40 vs SDS log2 ratios) (log2 ratio difference); higher = more soluble in mitosis
HeLa Kyoto [3] = assay: thermal stability score vs G1/S (z-score of summed log2 fold changes over temperatures); higher = more thermally stable than in G1/S
HeLa Kyoto [4] = assay: solubility in G1/S (NP-40 vs SDS abundance) (log2 ratio); higher = more soluble; conditions: cell cycle stage: G1/S
[5] = cell cycle stage: early G1 (4.5 h after nocodazole release)
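Throughout, for melting temperature (median over replicates), in situ: HeLa Kyoto cells synchronized by double thymidine or nocodazole block, proteins quantified by TMT10plex mass spectrometry, three independent biological replicates.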
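Throughout, for solubility change mitosis vs G1/S (difference of NP-40 vs SDS log2 ratios): synchronized HeLa Kyoto cells (double thymidine block for G1/S, nocodazole release for mitosis), protein amounts in NP-40 versus SDS lysates quantified by mass spectrometry, three biological replicates.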
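Throughout, for solubility in G1/S (NP-40 vs SDS abundance): HeLa Kyoto cells arrested at G1/S by double thymidine block, proteins quantified by TMT10plex mass spectrometry in mild NP-40 versus SDS extracts, three biological replicates.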
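Throughout, for thermal stability score vs G1/S (z-score of summed log2 fold changes over temperatures): synchronized HeLa Kyoto cells, proteins quantified by TMT10plex mass spectrometry, three biological replicates, mitosis taken 0.5 h after nocodazole release, G1/S directly after double thymidine block.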

| Substance | melting temperature (HeLa Kyoto [1]; cell cycle stage: G1/S) [°C] | melting temperature (HeLa Kyoto [1]; cell cycle stage: mitosis) [°C] | solubility change mitosis (log2) (HeLa Kyoto [2]) | thermal stability score (HeLa Kyoto [3]; [5]) | thermal stability score (HeLa Kyoto [3]; cell cycle stage: mitosis) | solubility in G1/S (log2) (HeLa Kyoto [4]) |
| --- | --- | --- | --- | --- | --- | --- |
| MGDAADPREMRKTFIVPAIKPFDHYDFSRAKIACNLAWLVAKAFGTENVPEELQEPFYTDQYDQEHIKPPVVNLLLSAELYCRAGSLILKSDAAKPLLGHDAVIQALAQKGLYVTDQEKLVTERDLHKKPIQMSAHLAMIDTLMMAYTVEMVSIEKVIACAQQYSAFFQATDLPYDIEDAVMYWINKVNEHLKDIMEQEQKLKEHHTVEAPGGQKSPSKWFWKLVPARYRKEQTLLKQLPCIPLVENLLKDGTDGCALAALIHFYCPDVVRLEDICLKETMSLADSLYNLQLIQEFCQEYLNQCCHFTLEDMLYAASSIKSNYLVFMAELFWWFEVVKPSFVQPRVVRPQGAEPVKDMPSIPVLNAAKRNVLDSSSDFPSSGEGATFTQSHHHLPSRYSRPQAHSSASGGIRRSSSMSYVDGFIGTWPKEKRSSVHGVSFDISFDKEDSVQRSTPNRGITRSISNEGLTLNNSHVSKHIRKNLSFKPINGEEEAESIEEELNIDSHSDLKSCVPLNTNELNSNENIHYKLPNGALQNRILLDEFGNQIETPSIEEALQIIHDTEKSPHTPQPDQIANGFFLHSQEMSILNSNIKLNQSSPDNVTDTKGALSPITDNTEVDTGIHVPSEDIPETMDEDSSLRDYTVSLDSDMDDASKFLQDYDIRTGNTREALSPCPSTVSTKSQPGSSASSSSGVKMTSFAEQKFRKLNHTDGKSSGSSSQKTTPEGSELNIPHVVAWAQIPEETGLPQGRDTTQLLASEMVHLRMKLEEKRRAIEAQKKKMEAAFTKQRQKMGRTAFLTVVKKKGDGISPLREEAAGAEDEKVYTDRAKEKESQKTDGQRSKSLADIKESMENPQAKWLKSPTTPIDPEKQWNLASPSEETLNEGEILEYTKSIEKLNSSLHFLQQEMQRLSLQQEMLMQMREQQSWVISPPQPSPQKQIRDFKPSKQAGLSSAIAPFSSDSPRPTHPSPQSSNRKSASFSVKSQRTPRPNELKITPLNRTLTPPRSVDSLPRLRRFSPSQVPIQTRSFVCFGDDGEPQLKESKPKEEVKKEELESKGTLEQRGHNPEEKEIKPFESTVSEVLSLPVTETVCLTPNEDQLNQPTEPPPKPVFPPTAPKNVNLIEVSLSDLKPPEKADVPVEKYDGESDKEQFDDDQKVCCGFFFKDDQKAENDMAMKRAALLEKRLRREKETQLRKQQLEAEMEHKKEETRRKTEEERQKKEDERARREFIRQEYMRRKQLKLMEDMDTVIKPRPQVVKQKKQRPKSIHRDHIESPKTPIKGPPVSSLSLASLNTGDNESVHSGKRTPRSESVEGFLSPSRCGSRNGEKDWENASTTSSVASGTEYTGPKLYKEPSAKSNKHIIQNALAHCCLAGKVNEGQKKKILEEMEKSDANNFLILFRDSGCQFRSLYTYCPETEEINKLTGIGPKSITKKMIEGLYKYNSDRKQFSHIPAKTLSASVDAITIHSHLWQTKRPVTPKKLLPTKA [CAMSAP2] | 51.7 | 53 | -0.0823 | 1.04 | 2.88 | 0.00851 |
| MATGGYRTSSGLGGSTTDFLEEWKAKREKMRAKQNPPGPAPPGGGSSDAAGKPPAGALGTPAAAAANELNNNLPGGAPAAPAVPGPGGVNCAVGSAMLTRAAPGPRRSEDEPPAASASAAPPPQRDEEEPDGVPEKGKSSGPSARKGKGQIEKRKLREKRRSTGVVNIPAAECLDEYEDDEAGQKERKREDAITQQNTIQNEAVNLLDPGSSYLLQEPPRTVSGRYKSTTSVSEEDVSSRYSRTDRSGFPRYNRDANVSGTLVSSSTLEKKIEDLEKEVVRERQENLRLVRLMQDKEEMIGKLKEEIDLLNRDLDDIEDENEQLKQENKTLLKVVGQLTR [PAWR] | 60.6 | 55.7 | 0.127 | -0.931 | -1.76 | 0.552 |
| PHF5A | 53.8 | 52.2 | 0.276 | -3.94 | -5.73 | -0.51 |
| MLLTVYCVRRDLSEVTFSLQVDADFELHNFRALCELESGIPAAESQIVYAERPLTDNHRSLASYGLKDGDVVILRQKENADPRPPVQFPNLPRIDFSSIAVPGTSSPRQRQPPGTQQSHSSPGEITSSPQGLDNPALLRDMLLANPHELSLLKERNPPLAEALLSGDLEKFSRVLVEQQQDRARREQERIRLFSADPFDLEAQAKIEEDIRQQNIEENMTIAMEEAPESFGQVVMLYINCKVNGHPVKAFVDSGAQMTIMSQACAERCNIMRLVDRRWAGIAKGVGTQKIIGRVHLAQVQIEGDFLPCSFSILEEQPMDMLLGLDMLKRHQCSIDLKKNVLVIGTTGSQTTFLPEGELPECARLAYGAGREDVRPEEIADQELAEALQKSAEDAERQKP [DDI2] | 52.8 | 53 | -0.11 | -0.385 | 0.166 | 0.489 |
| MSPWSWFLLQTLCLLPTGAASRRGAPGTANCELKPQQSELNSFLWTIKRDPPSYFFGTIHVPYTRVWDFIPDNSKEAFLQSSIVYFELDLTDPYTISALTSCQMLPQGENLQDVLPRDIYCRLKRHLEYVKLMMPLWMTPDQRGKGLYADYLFNAIAGNWERKRPVWVMLMVNSLTEVDIKSRGVPVLDLFLAQEAERLRKQTGAVEKVEEQCHPLNGLNFSQVIFALNQTLLQQESLRAGSLQIPYTTEDLIKHYNCGDLSSVILSHDSSQVPNFINATLPPQERITAQEIDSYLRRELIYKRNERIGKRVKALLEEFPDKGFFFAFGAGHFMGNNTVLDVLRREGYEVEHAPAGRPIHKGKSKKTSTRPTLSTIFAPKVPTLEVPAPEAVSSGHSTLPPLVSRPGSADTPSEAEQRFRKKRRRSQRRPRLRQFSDLWVRLEESDIVPQLQVPVLDRHISTELRLPRRGHSHHSQMVASSACLSLWTPVFWVLVLAFQTETPLL [TRABD2A] | 53.9 | 53.4 | -0.031 | 1.43 | 0.133 | 0.299 |
| MPKLQGFEFWSRTLRGARHVVAPMVDQSELAWRLLSRRHGAQLCYTPMLHAQVFVRDANYRKENLYCEVCPEDRPLIVQFCANDPEVFVQAALLAQDYCDAIDLNLGCPQMIAKRGHYGAFLQDEWDLLQRMILLAHEKLSVPVTCKIRVFPEIDKTVRYAQMLEKAGCQLLTVHGRTKEQKGPLSGAASWEHIKAVRKAVAIPVFANGNIQCLQDVERCLRDTGVQGVMSAEGNLHNPALFEGRSPAVWELAEEYLDIVREHPCPLSYVRAHLFKLWHHTLQVHQELREELAKVKTLEGIAAVSQELKLRCQEEISRQEGAKPTGDLPFHWICQPYIRPGPREGSKEKAGARSKRALEEEEGGTEVLSKNKQKKQLRNPHKTFDPSLKPKYAKCDQCGNPKGNRCVFSLCRGCCKKRASKETADCPGHGLLFKTKLEKSLAWKEAQPELQEPQPAAPGTPGGFSEVMGSALA [DUS1L] | 47.3 | 48.9 | -0.169 | 0.994 | 1.71 | 0.086 |
| MEADASVDMFSKVLEHQLLQTTKLVEEHLDSEIQKLDQMDEDELERLKEKRLQALRKAQQQKQEWLSKGHGEYREIPSERDFFQEVKESENVVCHFYRDSTFRCKILDRHLAILSKKHLETKFLKLNVEKAPFLCERLHIKVIPTLALLKDGKTQDYVVGFTDLGNTDDFTTETLEWRLGSSDILNYSGNLMEPPFQNQKKFGTNFTKLEKKTIRGKKYDSDSDDD [TXNDC9] | 52.4 | 52.7 | 0.0132 | 1 | 0.636 | 0.273 |
| MSSGIHVALVTGGNKGIGLAIVRDLCRLFSGDVVLTARDVTRGQAAVQQLQAEGLSPRFHQLDIDDLQSIRALRDFLRKEYGGLDVLVNNAGIAFKVADPTPFHIQAEVTMKTNFFGTRDVCTELLPLIKPQGRVVNVSSIMSVRALKSCSPELQQKFRSETITEEELVGLMNKFVEDTKKGVHQKEGWPSSAYGVTKIGVTVLSRIHARKLSEQRKGDKILLNACCPGWVRTDMAGPKATKSPEEGAETPVYLALLPPDAEGPHGQFVSEKRVEQW [CBR1] | 53.2 | 53 | -0.0843 | -1.36 | -0.874 | 0.626 |

— the supplement of paper PMC5998384
